Measured values as given in article PMC8298264, “Function of cofactor Akirin2 in the regulation of gene expression in model human neutrophil-like HL60 cells” (Bioscience Reports, 2021).

B1: sp¦Q9BVP2¦GNL3_HUMAN (protein, UniProt Q9BVP2 1-549, looked up)
Guanine nucleotide-binding …: MKRPKLKKASKRMTCHKRYKIQKKVREHHRKLRKEAKKRGHKKPRKDPGVPNSAPFKEALLREAELRKQRLEELKQQQKLDRQKELEKKRKLETNPDIKPSNVEPMEKEFGLCKTENKAKSGKQNSKKLYCQELKKVIEASDVVLEVLDARDPLGCRCPQVEEAIVQSGQKKLVLILNKSDLVPKENLESWLNYLKKELPTVVFRASTKPKDKGKITKRVKAKKNAAPFRSEVCFGKEGLWKLLGGFQETCSKAIRVGVIGFPNVGKSSIINSLKQEQMCNVGVSMGLTRSMQVVPLDKQITIIDSPSFIVSPLNSSSALALRSPASIEVVKPMEAASAILSQADARQVVLKYTVPGYRNSLEFFTVLAQRRGMHQKGGIPNVEGAAKLLWSEWTGASLAYYCHPPTSWTPPPYFNESIVVDMKSGFNLEELEKNNAQSIRAIKGPHLANSILFQSSGLTNGIIEEKDIHEELPKRKERKQEEREDDKDSDQETVDEEVDENSSGMFAAEETGEALSEETTAGEQSTRSFILDKIIEEDDAYDFSTDYV
B2: sp¦P43490¦NAMPT_HUMAN (protein, UniProt P43490 1-491, looked up)
Nicotinamide …: MNPAAEAEFNILLATDSYKVTHYKQYPPNTSKVYSYFECREKKTENSKLRKVKYEETVFYGLQYILNKYLKGKVVTKEKIQEAKDVYKEHFQDDVFNEKGWNYILEKYDGHLPIEIKAVPEGFVIPRGNVLFTVENTDPECYWLTNWIETILVQSWYPITVATNSREQKKILAKYLLETSGNLDGLEYKLHDFGYRGVSSQETAGIGASAHLVNFKGTDTVAGLALIKKYYGTKDPVPGYSVPAAEHSTITAWGKDHEKDAFEHIVTQFSSVPVSVVSDSYDIYNACEKIWGEDLRHLIVSRSTQAPLIIRPDSGNPLDTVLKVLEILGKKFPVTENSKGYKLLPPYLRVIQGDGVDINTLQEIVEGMKQKMWSIENIAFGSGGGLLQKLTRDLLNCSFKCSYVVTNGLGINVFKDPVADPNKRSKKGRLSLHRTPAGNFVTLEEGKGDLEEYGQDLLHTVFKNGKVTKSYSFDEIRKNAQLNIELEAAHH
B3: sp¦Q86W42¦THOC6_HUMAN (protein, UniProt Q86W42 1-341, looked up)
THO complex subunit 6: MERAVPLAVPLGQTEVFQALQRLHMTIFSQSVSPCGKFLAAGNNYGQIAIFSLSSALSSEAKEESKKPVVTFQAHDGPVYSMVSTDRHLLSAGDGEVKAWLWAEMLKKGCKELWRRQPPYRTSLEVPEINALLLVPKENSLILAGGDCQLHTMDLETGTFTRVLRGHTDYIHCLALRERSPEVLSGGEDGAVRLWDLRTAKEVQTIEVYKHEECSRPHNGRWIGCLATDSDWMVCGGGPALTLWHLRSSTPTTIFPIRAPQKHVTFYQDLILSAGQGRCVNQWQLSGELKAQVPGSSPGLLSLSLNQQPAAPECKVLTAAGNSCRVDVFTNLGYRAFSLSF
B4: sp¦P50213¦IDH3A_HUMAN (protein, UniProt P50213 28-366, looked up)
Isocitrate dehydrogenase …: TGGVQTVTLIPGDGIGPEISAAVMKIFDAAKAPIQWEERNVTAIQGPGGKWMIPSEAKESMDKNKMGLKGPLKTPIAAGHPSMNLLLRKTFDLYANVRPCVSIEGYKTPYTDVNIVTIRENTEGEYSGIEHVIVDGVVQSIKLITEGASKRIAEFAFEYARNNHRSNVTAVHKANIMRMSDGLFLQKCREVAESCKDIKFNEMYLDTVCLNMVQDPSQFDVLVMPNLYGDILSDLCAGLIGGLGVTPSGNIGANGVAIFESVHGTAPDIAGKDMANPTALLLSAVMMLRHMGLFDHAARIEAACFATIKDGKSLTKDLGGNAKCSDFTEEICRRVKDLD
B5: sp¦O60832¦DKC1_HUMAN (protein, UniProt O60832 2-514, looked up)
H/ACA ribonucleoprotein …: ADAEVIILPKKHKKKKERKSLPEEDVAEIQHAEEFLIKPESKVAKLDTSQWPLLLKNFDKLNVRTTHYTPLACGSNPLKREIGDYIRTGFINLDKPSNPSSHEVVAWIRRILRVEKTGHSGTLDPKVTGCLIVCIERATRLVKSQQSAGKEYVGIVRLHNAIEGGTQLSRALETLTGALFQRPPLIAAVKRQLRVRTIYESKMIEYDPERRLGIFWVSCEAGTYIRTLCVHLGLLLGVGGQMQELRRVRSGVMSEKDHMVTMHDVLDAQWLYDNHKDESYLRRVVYPLEKLLTSHKRLVMKDSAVNAICYGAKIMLPGVLRYEDGIEVNQEIVVITTKGEAICMAIALMTTAVISTCDHGIVAKIKRVIMERDTYPRKWGLGPKASQKKLMIKQGLLDKHGKPTDSTPATWKQEYVDYSESAKKEVVAEVVKAPQVVAEAAKTAKRKRESESESDETPPAAPQLIKKEKKKSKKDKKAKAGLESGAEPGDGDSDTTKKKKKKKKAKEVELVSE
B6: sp¦Q52LJ0¦FA98B_HUMAN (protein, UniProt Q52LJ0 1-433, looked up)
Protein FAM98B: MRGPEPGPQPTMEGDVLDTLEALGYKGPLLEEQALTKAAEGGLSSPEFSELCIWLGSQIKSLCNLEESITSAGRDDLESFQLEISGFLKEMACPYSVLISGDIKDRLKKKEDCLKLLLFLSTELQASQILQNKKHKNSQLDKNSEVYQEVQAMFDTLGIPKSTTSDIPHMLNQVESKVKDILSKVQKNHVGKPLLKMDLNSEQAEQLERINDALSCEYECRRRMLMKRLDVTVQSFGWSDRAKVKTDDIARIYQPKRYALSPKTTITMAHLLAAREDLSKIIRTSSGTSREKTACAINKVLMGRVPDRGGRPNEIEPPPPEMPPWQKRQEGGGGRGGWGGGGGGGGRGGGGGGGGRGGWGGGGGGWGGGGGGGGGWGGGGGGGRGGFQGRGDYGGRGGYGGRGGYGGRGYGDPYGGGGGGGGGGGGGGGYRRY
B7: sp¦Q70J99¦UN13D_HUMAN (protein, UniProt Q70J99 1-1090, looked up)
Protein unc-13 homolog D: MATLLSHPQQRPPFLRQAIKIRRRRVRDLQDPPPQMAPEIQPPSHHFSPEQRALLYEDALYTVLHRLGHPEPNHVTEASELLRYLQEAFHVEPEEHQQTLQRVRELEKPIFCLKATVKQAKGILGKDVSGFSDPYCLLGIEQGVGVPGGSPGSRHRQKAVVRHTIPEEETHRTQVITQTLNPVWDETFILEFEDITNASFHLDMWDLDTVESVRQKLGELTDLHGLRRIFKEARKDKGQDDFLGNVVLRLQDLRCREDQWYPLEPRTETYPDRGQCHLQFQLIHKRRATSASRSQPSYTVHLHLLQQLVSHEVTQHEAGSTSWDGSLSPQAATVLFLHATQKDLSDFHQSMAQWLAYSRLYQSLEFPSSCLLHPITSIEYQWIQGRLKAEQQEELAASFSSLLTYGLSLIRRFRSVFPLSVSDSPARLQSLLRVLVQMCKMKAFGELCPNTAPLPQLVTEALQTGTTEWFHLKQQHHQPMVQGIPEAGKALLGLVQDVIGDLHQCQRTWDKIFHNTLKIHLFSMAFRELQWLVAKRVQDHTTVVGDVVSPEMGESLFQLYISLKELCQLRMSSSERDGVLALDNFHRWFQPAIPSWLQKTYNEALARVQRAVQMDELVPLGELTKHSTSAVDLSTCFAQISHTARQLDWPDPEEAFMITVKFVEDTCRLALVYCSLIKARARELSSGQKDQGQAANMLCVVVNDMEQLRLVIGKLPAQLAWEALEQRVGAVLEQGQLQNTLHAQLQSALAGLGHEIRTGVRTLAEQLEVGIAKHIQKLVGVRESVLPEDAILPLMKFLEVELCYMNTNLVQENFSSLLTLLWTHTLTVLVEAAASQRSSSLASNRLKIALQNLEICFHAEGCGLPPKALHTATFQALQRDLELQAASSRELIRKYFCSRIQQQAETTSEELGAVTVKASYRASEQKLRVELLSASSLLPLDSNGSSDPFVQLTLEPRHEFPELAARETQKHKKDLHPLFDETFEFLVPAEPCRKAGACLLLTVLDYDTLGADDLEGEAFLPLREVPGLSGSEEPGEVPQTRLPLTYPAPNGDPILQLLEGRKGDREAQVFVRLRRHRAKQASQHALRPAP
B8: sp¦P26639¦SYTC_HUMAN (protein, UniProt P26639 1-723, looked up)
Threonine--tRNA ligase 1, …: MFEEKASSPSGKMGGEEKPIGAGEEKQKEGGKKKNKEGSGDGGRAELNPWPEYIYTRLEMYNILKAEHDSILAEKAEKDSKPIKVTLPDGKQVDAESWKTTPYQIACGISQGLADNTVIAKVNNVVWDLDRPLEEDCTLELLKFEDEEAQAVYWHSSAHIMGEAMERVYGGCLCYGPPIENGFYYDMYLEEGGVSSNDFSSLEALCKKIIKEKQAFERLEVKKETLLAMFKYNKFKCRILNEKVNTPTTTVYRCGPLIDLCRGPHVRHTGKIKALKIHKNSSTYWEGKADMETLQRIYGISFPDPKMLKEWEKFQEEAKNRDHRKIGRDQELYFFHELSPGSCFFLPKGAYIYNALIEFIRSEYRKRGFQEVVTPNIFNSRLWMTSGHWQHYSENMFSFEVEKELFALKPMNCPGHCLMFDHRPRSWRELPLRLADFGVLHRNELSGALTGLTRVRRFQQDDAHIFCAMEQIEDEIKGCLDFLRTVYSVFGFSFKLNLSTRPEKFLGDIEVWDQAEKQLENSLNEFGEKWELNSGDGAFYGPKIDIQIKDAIGRYHQCATIQLDFQLPIRFNLTYVSHDGDDKKRPVIVHRAILGSVERMIAILTENYGGKWPFWLSPRQVMVVPVGPTCDEYAQKVRQQFHDAKFMADIDLDPGCTLNKKIRNAQLAQYNFILVVGEKEKISGTVNIRTRDNKVHGERTISETIERLQQLKEFRSKQAEEEF
B9: sp¦O95573¦ACSL3_HUMAN (protein, UniProt O95573 1-720, looked up)
Fatty acid CoA ligase Acsl3: MNNHVSSKPSTMKLKHTINPILLYFIHFLISLYTILTYIPFYFFSESRQEKSNRIKAKPVNSKPDSAYRSVNSLDGLASVLYPGCDTLDKVFTYAKNKFKNKRLLGTREVLNEEDEVQPNGKIFKKVILGQYNWLSYEDVFVRAFNFGNGLQMLGQKPKTNIAIFCETRAEWMIAAQACFMYNFQLVTLYATLGGPAIVHALNETEVTNIITSKELLQTKLKDIVSLVPRLRHIITVDGKPPTWSEFPKGIIVHTMAAVEALGAKASMENQPHSKPLPSDIAVIMYTSGSTGLPKGVMISHSNIIAGITGMAERIPELGEEDVYIGYLPLAHVLELSAELVCLSHGCRIGYSSPQTLADQSSKIKKGSKGDTSMLKPTLMAAVPEIMDRIYKNVMNKVSEMSSFQRNLFILAYNYKMEQISKGRNTPLCDSFVFRKVRSLLGGNIRLLLCGGAPLSATTQRFMNICFCCPVGQGYGLTESAGAGTISEVWDYNTGRVGAPLVCCEIKLKNWEEGGYFNTDKPHPRGEILIGGQSVTMGYYKNEAKTKADFFEDENGQRWLCTGDIGEFEPDGCLKIIDRKKDLVKLQAGEYVSLGKVEAALKNLPLVDNICAYANSYHSYVIGFVVPNQKELTELARKKGLKGTWEELCNSCEMENEVLKVLSEAAISASLEKFEIPVKIRLSPEPWTPETGLVTDAFKLKRKELKTHYQADIERMYGRK

These molecules were tested on human HL60 cells (assay: SWATH-MS proteomics, differential protein representation, akirin2 KO vs WT HL60 cells). Conditions: SWATH-MS, akirin2 KO vs WT HL60 cells; sheet "Under-represented in KO".
Format: cell-based
Outline: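 Differential representation compares akirin2 KO with WT HL60 across three biological replicates, 5 µg digest each, acquired by data-independent SWATH on a 120-min gradient. Library built from combined IDA runs searched with Paragon; proteins accepted at 1% FDR, with total-area-sum normalization.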

Molecule | Fold Change | Log (Fold Change)
B1 | 0.7833 | -0.1061
B2 | 0.7897 | -0.1025
B3 | 0.7851 | -0.1051
B4 | 0.7755 | -0.1104
B5 | 0.774 | -0.1113
B6 | 0.7848 | -0.1053
B7 | 0.785 | -0.1051
B8 | 0.7727 | -0.112

Same assay, conditions: akirin2 KO vs WT HL60 cells; sheet "Under-represented in KO"

Molecule | Fold Change | Log (Fold Change)
B9 | 0.3507 | -0.4551
